Reference: patent US20230226096A1 (Orna Therapeutics, Inc., priority 2020, published 2023)

Test system: HEK293 cells
Assay type: cell-based, human
Conditions: luminescence from secreted Gluc in supernatant 24 hours after transfection of HEK293 cells; circular RNA encoding Gluc with the named IRES (UTR truncated to 675 nt)

Molecule	Expression
HRVB27 (nucleic acid, listed as Rhinovirus sp.) DNA: TTAAAACAGCGGATGGGTATCCCACCATCCGACCCACAGGGTGTAGTGCTCTGGTATTTTGTACCTTTGCACGCCTGTTTCCCCATTGTACCCCTCCTTAAATTTCCTCCCCAAGTAACGTTAGAAGTTTAAGGAAACAAATGTACAATAGGAAGCATCACATCCAGTGGTGTTATGTACAAGCACTTCTGTTTCCCCGGAGCGAGGTATAAGTGGTACCCACCGCCGAAAGCCTTTAACCGTTATCCGCCAATCAACTACGTAATGGCTAGTATTACCATGTTTGTGACTTGGTGTTCGATCAGGTGGTTCCCCCCACTAGTTTGGTCGATGAGGCTAGGAACTCCCCACGGGTGACCGTGTCCTAGCCTGCGTGGCGGCCAACCCAGCTTTTGCTGGGACGCCTTTTTACAGACATGGTGTGAAGACCTGCATGTGCTTGATTGTGAGTCCTCCGGCCCCTGAATGCGGCTAACCTTAACCCCGGAGCCTTGCAACATAATCCAATGTTGTTGAGGTCGTAATGAGTAATTCTGGGATGGGACCGACTACTTTGGGTGTCCGTGTTTCCTTTTATTCTTTATATTGTCTTATGGTCACAGCATATATAGCATATATACTGTGATC	2.04E+08
PSIV (2x mut for Xba1) (nucleic acid) DNA: GCAAAATGGGTACGTAGTTAACCACTGCGTATCAGGATTGCAGGCCACGAAGGGTATTTGCATATCTTTCTATGCGGTATTACGGCTTAAAACCCGTTGTATCTTGTTGTTTGACTGCCTGTATCACTAGTGGCCATTTTATTTAGGTTAGAGACCCCTGATAGTAGGAGAGTTACAAACTCTTTAAAAATTGTTGACCCCGGAAAAGATGGTGACCCCTGTAAGTAGTTGATCAAGAAGATCTATGCGCTGGCATAGTAATCCAGTGTTTCCTGTTTTAGGATGACCTCTGAAAGTAGATGACCGTGGAAAGTCACGTAGTGCCCCAATAAGCACGTTTGGGCAGCGTGCGCTATCACAAGGCTTGATCTCCGAGGAGCCCCTTGTTTTAGCTGGCTGGAAGCCAATGATCTTAAGTAGATAAGTGCTGTTGCTTGTAGTTCAACAGAAAGCTTTGAGTACGTCTTTCTTGCGAGAAAGAACACATGCATTCTTATGCTCTCAATTCTATTATTTTTATTTTGGGCGAAAGGAAAGCTCTCACGCGAGTACGAATAGCCAACCCTTTAT	9.70E+04
EV K (nucleic acid, Enterovirus K) DNA: TCAGCCTGACGCAAGTGCCTCCATTGGAGTCTCTCCAAGCCCTCCGGGGCTTGGAGGGCGCCGACCCCCTGCCTAGGGGGAGCCCACGACACGGCTGGAGTCCATTGGCACACCGCAGCCACGATTCAAGCCAGAATTGAAAGCGGGAAGCACTTCTGTCTCCCCGGTGTGGATCATACGCTGTACCCACGGCGAAAAGTGAAGCATCGTTACCCGACTCGGTACTTCGAGAAGCCCAGTACAGTTGTGGATCTCTGCAGGGTATACGCTCAGCGTGACCCCTACGTAGTTCCTTGAGATGGCTGAGAGAACACCCCACGGGCGACCGTGTCTCTCGGCGCGTGGCTCAAGGCCGGGCCTTCAGTGGCTCGGTGCCTTGCAGAGTGAAGCCTCCGAACAGCCTATTGAGCTACCGTTTAGCCTCCGCCCTCTTGAATGCGGCTAATCCTAACCATGGAGCGCCCGCCCACAGTCCAGTGGGTAGAGCGTCGTAACGCGCAAGTCCGTGGCGGAACCGACTACTTTAGAGTGGCGTGTTTCCAATTTATCCTTTATAAAGTTGCTTATGGTGACACCACAAGAGATCCACGATTTCTTGTTTCTTATCACTGAGACACAAGTCATATTCATCAATCTTTATTGCGGAATTAACTTGGTGCGTCCAAACACATCAGC	7.52E+07
EV J N125 (nucleic acid, listed as Enterovirus sp.) DNA: CGGTACCTTTGTACGCCTATTTTACCCCCTTCCCCTTGTAACTTAGAAGCAAAGCAAACCAGTTCAATAGTAAGCAACACAACCCAGTGTTGTGACGAACAAGTACTTCTGTTTCCCCGGGAGGGTCTGACGGTAAGCTGTACCCACGGCTGAAGTATGACCTACCGTTAACCGGCTACCTACTTCGAGAAGTCTAGTAATACCATTGAAGTTTTGTTGGCGTTACGCTCAACACACTACCCCGTGTGTAGTTTTGGCTGATGAGTCACGGCATTCCCCACGGGCGACCGTGGCCGTGGCTGCGTTGCGGCCAACCAAGGGGCGCAAGCTCCTTGGACGTCACTTAACAGACATGGTGTGAAGAACCTATTGAGCTAGGTAGTAGTCCTCCGGCCCCTGAATGCGGCTAATCCTAACTCCGGAGCACATCAGTGCAACCCAGCATTTGGTGTGTTGTAATACGCAAGTCTGGAGCGGAACCGACTACTTTGGGTGTCCGTGTTTCCTGTTTTACCTTATTTGGCTGCTTATGGTGACAATTTGATATTGTTACCATATAGCTGTTGGATTGGCCATCCGGATTTTTGAAAGAGACCCAAAACTTTCTTCTCTACTTCAGATTCAAGTGCGAAGTTTTCCTTTTCATATATTACTTACTAATTTGAAGTACCAAAG	2.90E+07
EV L (nucleic acid, Enterovirus L) DNA: ACATGGGCCAGCCCACCACACCCACTGGGTGTAGTAGTCTGGTTCTATGGAACCTTTCTACGCCTCTTTTGCTTCCCTCCCCCATTTCTCCTTCGATTGCTCCACCTGTGATCTTTGCAACTTAGAAGAAATAATGAACCCGCACAATAGCGGGCGCTGAGCCACAGCGTCAATGTGCAAGCACTTCTGTTTCCCCGGAATGGGCCCATAGGCTGTACCCACGGCTGAAAGGGACCGGCCCGTTACCCGCCTTGGTACTGCGAGAATGTTAGTAACTCCCTCGATAGCTTTAGGCGTTACGCTCAGCCCTTTGAGCCCGAAGGGTAGTTCGGGTCGATGAGGCTCGTCATTCCCCACTGGCGACAGTGTGACTTGCCTGCGTTGGCGGCCCGGGGTGGGGGGCAACCCCCATCCACGCCTACTGAAGGACAGGGTGTGAAGGCGCTATTGCGCTACTAAGGAGTCCTCCGGCCCCTGAATGCGGCTAACCCGAACCCCGAGCCCACGGTGGTAAACCCGCCACAAGTGGGTCGTAATGAGTAATTTGGGGCAGGGACCGACTACTTTGGGTGTCCGTGTTTCCTGTTTTTCCATACGATGGCTGCTTATGGTGACAACCATAAGCAATTGGATTGGCCATCCGGTGTTCATATTGCGAAT	6.49E+07
HRVA73 (nucleic acid, listed as Rhinovirus sp.) DNA: TTAAAACTGGGTTTGGGTTGTTCCCACCCAAACCACCCACGCGGTGTTGTACACTGTTATTCCGGTAACCTTGTACGCCAGTTTTATATCCCTTCCCCCCCTTGTAACTTAGAAGACATGCGAATCGACCAATAGCAGGCAATCAACCAGATTGTCACCGGTCAAGCACTTCTGTTTCCCCGGCTCTCGTTGATATGCTCCAACAGGGCAAAAACAATTGGAGTCGTTACCCGCAAGATGCCTACGCAAAACCTAGTAGCATCTTCGAAGATTTTTGGTTGGTCGCTCAGTTGCTACCCCAGCAATAGACCTGGCAGATGAGGCTAGAAATACCCCACTGGTGACAGTGTTCTAGCCTGCGTGGCTGCCTGCACACCCACACGGGTGTGAAGCCAAAGATTGGACAAGGTGTGAAGAGTCACGTGTGCTCATCTTGAGTCCTCCGGCCCCTGAATGCGGCTAACCTTAACCCCGTAGCCATTGCTCGCAATCCAGCGAGTATATGGTCGTAATGAGTAATTACGGGATGGGACCGACTACTTTGGGTGTCCGTGTTTCACTTTTTACTTATCAATTTGCTTATGGTGACAATATATATAGATATATATTGACACC	1.08E+08
EV J 1631 (nucleic acid, listed as Enterovirus sp.) DNA: CACCCTGAGGGCCCACGTGGCGTAGTACTCTGGTATCAAGGTACCTTTGTACGCCTATTTTATTTCCCTTCCCCCACAGTAACTTAGAAGCTTATCTCATAGTTCAACAGTAGGGTCACTAACCAAGTGGCTCAGCGAACAAGCACTTCTGTTTCCCCGGTCCTAGTACCTGTGAAGCTGTACCCACGGCGGAAGGGGAAAAAGATCGTTATCCGGCCCCCTACTTCGGAAAGCCTAGTAACACCATTGAAGCAATCGAGTGTTGCGCTCAGCACAGTAACCCCTGTGTAGCTTTGGTTGATGAGTCTGGGCACTCCCCACTGGCGACAGCGGCCCAGGCTGCGTTGGCGGCCAACCGACTCGGGCAACCGGGTCGGACGCTCGTTTGTGGACATGGTGTGAAGAGCCTACTGAGCTAGAGGGTAGTCCTCCGGCCCCTGAATGCGGATAATCCTAACCCCGGAGCACCCACACTCAATCCAGAGTGCAGGATGTCGTAACGCGTAAGTCTGGGACGGAACCGACTACTTTGGGTGTCCGTGTTTCCTGTTTTACTTACTTTGGCTGCTTATGGTGACAATCTAGTGTTGTTACCATATAGCTATTGGATTGGCCATCCGGTGTTTTGAATTGTGTGTTTATACTAATTCTTTTACATATCACAGACAACCAAAT	9.88E+07
EV I (nucleic acid, Enterovirus I) DNA: TTAGTACTTTCTCACGGGGATAGTGGTATCCCTCCCTAGTAATTTAGAAGACTTGAAAAACCGACCAATAGGCACCTCGCATCCAGCGGGGTAAAGGTCAAGCACTTCTGTTTCCCCGGGTCGAGTAGCGATAGACTGTGCCCACGGTCGAAGGTGAAACAACCCGTTATCCGACTTTGTACTTCGGGAAGCCTAGTACCACCAAAGATTATGCTTGGGGTTTCGCTCAGCACGACCCTGGTGTAGATCAGGCCGATGGATCACCGCATTCCTCACAGGCGACTGTGGCGGTGGTCGCGTGGCAGCCTGCCGATGGGGCAACCCATCGGACGCCAAGCATATGACAGGGTGTGAAGAGCCTACTGAGCTACAAAGTATTCCTCCGGCCCCTGAATGCGGCTAATCCCAACCACGGAGCATTTGCTACCAAACCAGGTAGTGGAATGTCGTAACGGGTAACTCTGTGGCGGAACCGACTACTTTGGGTGTCCGTGTTTCCTTTTAATTTATCATTCTGTATATGGTGACAACTATAGTGCTATCTCGATTTGCATTACTATTGTTGAGATTAAAACTTTATTACATTGTTGCATTTTACCCTTTGAGTGAGTTTTCACCTGAACAGATTAATTTACTCATCCTGTTTATATATTACAAGCAGAAATACTTGCAAAG	1.31E+08
EV F1 BEV 261 (nucleic acid, listed as Enterovirus sp.) DNA: GCAATGCTGCACCAGTGCACTGGTACGCTAGTACCTTTTCACGGAGTAGATGGTATCCCTTACCCCGGAACCTAGAAGATTGCACACAAACCGACCAATAGGCGCACCGCATCCAGCCGTGCAGCGGTCAAGCACTTCTGTCTCCCCGGTCTGTAAAGATCGTTATCCGCCCGACCCACTACGAAAAGCCTAGTAACTGGCCAAGTGAACGCGAAGTTGCGCTCCGCCACAACCCCAGTGGTAGCTCTGGAAGATGGGGCTCGCACCACCCCCGTGGTAACACGGTTGCCTGCCCGCGTGTGCTTCCGGGTTCGGTCTCGTGCCGTTCACTTCAACTTCACGCAACCAGCCAAGAGCCTATTGTGCTGGGACGGTTTTCCTCCGGGGCCGTGAATGCTGCTAATCCCAACCTCCGAGCGTGTGCGCACAATCCAGTGTTGCTACGTCGTAACGCGTAAGTTGGAGGCGGAACAGACTACTTTCGGTACCCCGTGTTTCCTCTCATTTTATTTAATATTTTATGGTGACAATTGTTGAGATTTGCGCTCTTGCAACGTTGCCATTGAATATTGGCTTATACTATTTGGTTGCCTTTTACAAAACCTCTGATATACCCAGTTCTTACATTGATCTGCTTGTTTTTCTCAATTTGAAGTATAGACTACAAATAGCAAA	1.12E+07
